Data published in the NTF2 design screens of Basanta et al. (2020).

Test: protease stability score; higher = more stable; yeast display proteolysis, trypsin and chymotrypsin;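 further: relative to predicted unfolded state with 0 unfolded-like and 1 meaning tenfold more protease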

| Sequence | protease stability score |
| --- | --- |
| TEYEHLMEYIVRRFLEVLLTGDERELDRLADPHVIHHMKQGDKSWSLHGMELLSEVSRHWRDEIRIKRVEIHDLKNIGNWSDMYSTVHLRYNGREEVVEVRLHIDVYNGRVREVEIRIH | 1.12 |
| DEEEEIARKYITLLVKSFLTGDERSIERLVDPHYRHDVGDKHVHGRERFTRHIYENLIRVKGIRVEVIVEHIRVINGRVEVDMQIHWKQGEFQILITSRMHVEKVDGRWLIREVEID | 0.976 |
| SEEERLLHEFWERLQHSHKTGNEEEYRKNIDPHARLDIDGREMHGWENFFHFFVEMRVHDLRIEDYRVQGDKVIVHTRVDGIVNGVRTEIHSELIIRKIDGRWFIEAMTIK | 1.07 |
| DDHKKRVDHLLRELLHHWRTGDFEHIYKLADPHVRFHIQIGEFHHEAVGWDEVVRLIQTHLDQLGVDHLRIRRVKSQGDKLYIETESYIGDFRIEFHIIWIVVNGRLKEQRMHIHEG | 1.45 |
| HELEEEAKRAADIWFENLLTGDFDSLRKLVDPHVRMNYNGQEYHGWEEVIRFWKEYLDKVKNLQFHRHHVDVQGEKTTIDTRHIINGRSSEVEIRLLVINGRIQSNEVHEN | 1.14 |
| DEDHRDVERLFQFVEELLHTGDERVNEELADPNVRIDVNGVERHGREDMVTWLRTIEERYKNATFHTHHIRIQGNKLKVNGRIRQGDWSSDVDILYVKINGRWFIRELKVK | 1.49 |
| TEDERHLEESIELFHEVHRTGDEEQLHRMLDPSVRVDVNGRILHGREIVVEWLRRTLEKFKNVQIEFILKDRDHINGVLRIHGVLLVNVGDKHTIIDTIIVAHKVNGRWLIHSMHVK | 2.15 |
| DEHEKEWQELFRLAAHVLETGDEKMLQHLIDPSARTRINGKYTHGWEESARTLHEIRRRLGIDHEEITDHEIQGDKVIIHGRSQVGDKNFTVNIEWIIVNGRLKSVNFTIH | 0.55 |
| TEMEEEIRDSIELLDRAINTGDEEKLRRLFDPNTRREVGDKQHHGRELLIRQIVELGAEHHIHVDHWRLQGDKAVIDGTLNYEFNGREYRTRTTLHLVKINGRWLMHSIHLH | 1.08 |
| DERHRYMKLFLDIFLHLYQTGDWDKLEHLADPHVKLIFENHELHGRDSFFRFILEWLRHMGVNHVEFHNIHYDLVGDKVHLEVRLIVFINGRIHHVIIHIIAEKIDGKWHLRSHEIRHE | 1.34 |
| SEDEEEFRRWLEEMVRALITGDEDRLKELFDPHAQVHVNGKERHGRDELVKAFRETLEDFGVKHMRVTSSSVQGDYVIIHIEMHVDGKPIQTDIRVIIVNGKVHKFEVQLH | 1.89 |
| DDEHHDAVRVIEEFVTSVLTGNWEILKELLDPNVKFEIDGREIWGREFVNREIEEIRIRSRMEVRSVRFQGEKMEVDTEYNVDLNIGDKRFHYRRSTRVILEKYDGRWRIQSFHFE | 0.284 |
| SEDEELRQIAVEFILHILWTGDEELLYKYFDPHVRSDINGRRTHGRENMLRAIREMMRKIKGIQLTSLHITDIEIIGDYLNIDGHFRLNYDGKETDLSLKIDIFKINGKWSIHAISYR | 2.08 |
| SKLEEDAHKMLDKILHNIRTGDEESEHRLADPEVKFHIGDKTFHGMSLVSKLLLHLRIRTERIENVNIRVINGVAEVEMRGVRDGEFNGVRVQVTVEEHFIIDKINGRWIIREIHVHII | 1.29 |
| DEDEELMRRVVEIYIRALHTGDEDWMTHLADPHVKVDLLIDGRETELHGREWVVEIARKLGVKHSEVKDVHLVGDYIVIHLHLRIGDKEEEQDLIFLKVDGKWTLESSTIRRI | 1.53 |
| SEERHLEELMYKWVRQMIETGDEDLERKLADPHVRSDINGVDLHGREEMIKEIKRLEDWLGIDHREFKTITFINGRIHVHIKLNVNGKDIKSIHIYDVIDGRLKEVSVRFR | 1.19 |
| DEREEMSRHMINLWNRHLETGDEDRISKLADPHVKVTNEDEEHVGRESAERFVRLMGFDHVHLHDIHIQGNKVISTVEIRIDGQTYQSDVVALKVDGKWKVKNVHIH | 0.711 |
| KHEEDEWKRMIDIVLHMLKTGNFELLERLADPHARSHIDGVRIHGREKFVEILFEVWHFYKNLTISINHIDVFNGVIVIHGRLDINGRQVEVHIVVTKINGKWFLESHSEIFH | 0.572 |
| DEHEEYMEELVKSIYTLWKTGDEDTLLSLFDPNMRILIDGVDAVGRENFKEEFRRFKEEIRHKDHKIHHIDIQGEKIRTEVLVHGIWDGVDTTLHVEIRIVVINGRVKSIEFHFT | 1.74 |
| SEEEHVAEELIKQFLRKFSTGDEDSMRNLFDPNVKIEQGEFDIHGREEETRYFRELRVHIEDSTAREIRVQGDKVDIDLEVVGIVHFNGKTVRRIIRTRVHLLKVDGQWHIKSIQIL | 1.24 |
| DHKEARDVAQTMMHLLKHGDFEQIVRNADPNAHFVVGDKEYHGRDNLRKVLKRLHDQVDHISFRTYKVDEDTAKLDATVQINGRNYRMDVLVHFHNGRIKDLNIKVTDEDTQREADK | 1.57 |
| EEELELAKKIADTFNHDMETGDEKSRWDLFDPNVRIDWNGKDLHGWEQEEEELERLGITKVELEIKRKEVQGDKVILDGTVRFNGRSTRVHVHIRVVNGRLKSIKIIIR | 0.345 |
| SEDEEMIRELAEIFIKNWETGDEEDRWKLMDPNARIEVNGKQNHGREEDERHSKELGFKHIEVRIKRSRIVGDKAEIDGELYMRYDGKTEHVKVHIHVQIVDGRIKIVSFKIR | 1.31 |
| DEEERLMKELSDRFLHMKETGDEELFHKLADPNVRVEIGDKSRHGRELATEFLSWVMKELGVKHVKLHDKRTYDGRVHLNGTLEFNGREFRVRITVIIVNGRVHDIRVELE | 0.771 |
| GDLEHMLESMARLWTHEVLTGDEDTLRRLADPNVRFESHVNGQRVEFHGMEEVAEWMRKHLEEIRSRIELRTIEPQGNKAHVDGTTHLHYNGRTVIKKTHVHLSIVDGKIQRVELELR | -0.051 |

| Sequence | protease stability score |
| --- | --- |
| SEDEEQARHFVEMLEHVERTGDWRELEKLVDPHVIMDIDGVRHHGRHEVVDLSKKLGVDHVSLEHLEVQGDKAIIHFNMHVNGVEMHHHVDTRKVNGRWLNERIILK | 0.488 |
| DQEEHEFYNVLRLFMFTLMTGDEHTLKKLLDPNARIEINGQERHGREEILHHMNRNLHEIRMKTLEVKRESVYGNYAHADTRLRGEVNGRESIVTVHIYIQVINGRIEHVHLDIK | 1.45 |
| SEEEKLLEELAKMFIELWLTGNEEHLMHLADPNVRFRQGDKRSHGRENLKRLLHELHEEIRIHDIRMKDVRFVNGRSIFDGHLIVQVNGVEIRLDAELTIISVNGKIKEIEIRHR | 1.08 |
| DEHEDDARRMWELLEHDLQTGDEESIHRLVDPNAKVVYGDKEFVGREVLLRFASEWRVHLMHLDDIKIRTYGDKIDIDTTTITNGEFNGRKHVTRTHLRVHFEKVNGKWYVREVIIEIH | 1.31 |
| TEDERDMQEFYERLIHAIHTGDWREIRRQFDPNVLLNFNGKEIHGREQALRLMRELLHRADVIDDTKTKDLKFYNGRVELHIHEQGQINGQHFRSDVMLIVEKVNGRWYMKSYQID | 1.37 |
| DHEDHLSELAEHLIHHHWLTGDEHLLERMADPHAQIIIGDKHLHGREEVSRWLIEFMHKFKNMRLQIDHRHLIDGRLHVEVTINIGDKRLKVHRHSIKINGQWHLKSIIIE | 1.09 |
| DEEEKSLREMMRQFVEHLETGNFEEIEKMADPNARVRIDGRDFVGREEWHKMFIHLHKHLRLEDSHIHHIDFQGNKIHIHGHIHVVVDGKREHRHFHVIIRKVNGRWTIEEMYIE | 1.06 |
| DDREEHAKELVDLFQKVMLTGDFKTLEELIDPNYRLHVNGQDVHGMERVIRHIFHMRFQDVKVKRIDHQGNKIDMDVRSIVNVDGRLHEHEIQLIALKVDGRWTVKSLEVH | 1.48 |
| DEDEENARRFIHELSRILETGDEERLDEMADPDVRIIIGEKHLHGREEFRKWMRHLLKRVKNMQIEVQLTSSEIVGEWVNLDTTLIIRVGDKHYEHRTVVIVLKIDGRWFLHQIHFK | 1.79 |
| DDDEHEAKEAIHLWLELFMTGDEESHNRYMDPHVKTKFHFENHHEEYHGREKAIELMRMLGIKHVELRDVSTRVINGRVHIDMEIIVHFDGQEVRVIVLVIVIKINGQWILHEVVIIIK | 0.933 |
| DEMTHEIKRFLKEILRSSRTGDEHTDKHLMDPNVKIHYGEFHFHGREQAANFLSELRIHHVHIRDVDVQGDKATIDTEMDVEYNGQRYIFDVTLIMQKIDGRWLIKKVRYE | 1.3 |
| DEEEEHAEHMLRLWFHILHTGDWEDLVRLIDPNARLRVGDKTFHGMERLVRRHLEHKRRLGLDNFDFQVDNFEVYGDKIDIDVTENINGREYKVIIHIIVINGRVKNMHIKIN | 0.925 |
| SEDEHKLRTMLELWLEAHRTGDEDLLRKLMDPDVRIHVGDKDFHGWDHEIELFRKELKRLGIDKIDIEVKRIDLQGDKVILEVIVHINGKEIHMIIYANKFNGRWHVKQIEIR | 1.35 |
| DEDEEEIKRMIEEWFRSLVTGDEHQLKELMDPHVRLDINGVEHIGREEIVERLVKEARQADHMEFRVRDVRLVGDYAEIDGELIVNYNGREKSIETRIILWKFNGRWIDHQVHYK | 1.03 |
| SEDERDIEHAVKVEIKSYETGDEKSWREYVDPHVRIEQGDFLFHGWEDAVKLYAKIKNLTLEVKDMKVYNGRVHSEGVFKFNGQSMETRLIIFKIDGQWIVHSIHIK | 1.82 |
| DDEERDLKRAYELWVHNMLTGNWRMLNYLADPNTKIEFENHKSHGRESLHELLKRLGVDHMHIELEDMHFVGDKIILHTREEHRVGDKEIRTEVHIDARKINGRWRLQSVHFR | 0.97 |
| SEEDKSFEIMFKLFKEASDTGDEKTLSELFDPDTRIDIGDKHLHGREEAVRMWRELRIHDIRVKSFDIIGNKIHLDTHVNGLVNGRLHRTDSKIILLKVNGQWRIESYHVD | 1.77 |
| DTDAVRRALKFIDAMQDGDPDKARELMDPNARVNIGDKEYHGMTSFVKDLKRLRDEIRVQYNIRDYNAQGEKIHVTVDVVFEHNGRPVDERFNVTIDIQGDKIKQVTAHRTK | 1.5 |
| SEEEVQFRRFFEAFLHFWETGDEKMLKTLLDPHVKFTVHFENHRSHYHGREEFTKFLHELGVKHFELDRVRIEFQGDKIRIEIDGVLLYDGRFHESHIILIIVKVDGRWVIHQLHIQIE | 2.15 |
| DEFQHMAELASTLFQRSNHTGDEHSLQEMLDPNVRVIVGDKEFHGMEELLKTLRKELEILGVQRIETEVHQVNVQGNKINVDLILHVNGRERRIHLWAHKINGRWITERIEVR | 0.922 |
| DEEHEINRRIAEWWLHSVKTGDEESIENNADPNTRIVVNGVHFHGMEESHKWLHEFLRRFKNATLEIHSMEVINGVTHIHGTLVQGDKRIRVHIHVHVINGRIHTISHEHR | 1.27 |
| SELHKFAEELSRRWFEMVLTGDEDSLNELADPNVRNDVNGRELIGRESFAKWVKELRIEDVRHKRSRIEVQGDKMIIHMDIESVVTIDGVRRDQRYEIIIISRKVNGRWLVHSVEFRVE | 1.18 |
| DETKDDSDWAVELWEKLFKTGDEHLHERLADPHTRKEVGDKEFHGRELILKQFVEFVEKVKNIQLEFTHVKEQGEKVEMDTTLRIDGVRIRTKMIALKIDGVWLVKIIHIE | 0.964 |
| EELERDSKEVAERLLWDTLTGDEDLLLHLMDPHVRHIVNGVKLHGREALERAIEEHLSHLGIDHIRIRHIDFRIINGKMDVHIHGESIYNGRVVHMIIIFISTKVNGKWVLEELSIEIR | 1.85 |
| TDVEEQVHVAIELHLRTLLTGDEHLSEKLADPHVRILIDGQDYHGRTEWVKWIHTFHKRVDHHQIDVTTLSVQGDKIRIHFELKLHVNGVDLRFHILLIIEKYNGVWIMSEVHIS | 1.67 |
